Laboratory results published in patent US20180022822A1, “NOVEL ANTI-FIBROBLAST ACTIVATION PROTEIN (FAP) BINDING AGENTS AND USES THEREOF” (Mabimmune Diagnostics AG, priority 2016, published 2018).

T1: transmembrane human FAP on FAP expressing HEK293 cells (Homo sapiens, UniProt Q12884)
T1 construct: HEK293 cells were transduced with retrovirus encoding full length human FAP cDNA; host or cells: HEK293 (retroviral transduction, G418 selected)
T1 sequence (Q12884 1-760): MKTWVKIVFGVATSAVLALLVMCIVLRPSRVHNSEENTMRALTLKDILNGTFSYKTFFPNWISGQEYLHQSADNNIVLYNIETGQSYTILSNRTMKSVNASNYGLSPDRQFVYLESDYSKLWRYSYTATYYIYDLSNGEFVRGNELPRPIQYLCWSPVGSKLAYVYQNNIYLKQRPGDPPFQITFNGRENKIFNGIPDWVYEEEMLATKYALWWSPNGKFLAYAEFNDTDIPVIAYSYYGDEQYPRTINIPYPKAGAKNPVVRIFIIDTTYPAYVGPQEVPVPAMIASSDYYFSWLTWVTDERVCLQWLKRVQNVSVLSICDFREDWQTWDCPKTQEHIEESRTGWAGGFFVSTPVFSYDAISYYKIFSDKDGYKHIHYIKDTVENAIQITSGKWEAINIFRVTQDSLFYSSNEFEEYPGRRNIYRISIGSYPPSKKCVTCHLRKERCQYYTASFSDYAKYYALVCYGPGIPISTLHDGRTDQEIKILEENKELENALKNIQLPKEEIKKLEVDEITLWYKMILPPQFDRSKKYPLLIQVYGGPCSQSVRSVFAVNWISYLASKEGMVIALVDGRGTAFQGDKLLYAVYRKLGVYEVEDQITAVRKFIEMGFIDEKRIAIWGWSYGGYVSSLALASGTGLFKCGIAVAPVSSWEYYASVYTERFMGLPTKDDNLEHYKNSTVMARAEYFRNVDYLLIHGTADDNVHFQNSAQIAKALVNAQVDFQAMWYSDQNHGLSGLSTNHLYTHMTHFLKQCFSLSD

T2: captured FAP (sFAP) (Homo sapiens, UniProt Q12884)
T2 sequence (Q12884 1-760): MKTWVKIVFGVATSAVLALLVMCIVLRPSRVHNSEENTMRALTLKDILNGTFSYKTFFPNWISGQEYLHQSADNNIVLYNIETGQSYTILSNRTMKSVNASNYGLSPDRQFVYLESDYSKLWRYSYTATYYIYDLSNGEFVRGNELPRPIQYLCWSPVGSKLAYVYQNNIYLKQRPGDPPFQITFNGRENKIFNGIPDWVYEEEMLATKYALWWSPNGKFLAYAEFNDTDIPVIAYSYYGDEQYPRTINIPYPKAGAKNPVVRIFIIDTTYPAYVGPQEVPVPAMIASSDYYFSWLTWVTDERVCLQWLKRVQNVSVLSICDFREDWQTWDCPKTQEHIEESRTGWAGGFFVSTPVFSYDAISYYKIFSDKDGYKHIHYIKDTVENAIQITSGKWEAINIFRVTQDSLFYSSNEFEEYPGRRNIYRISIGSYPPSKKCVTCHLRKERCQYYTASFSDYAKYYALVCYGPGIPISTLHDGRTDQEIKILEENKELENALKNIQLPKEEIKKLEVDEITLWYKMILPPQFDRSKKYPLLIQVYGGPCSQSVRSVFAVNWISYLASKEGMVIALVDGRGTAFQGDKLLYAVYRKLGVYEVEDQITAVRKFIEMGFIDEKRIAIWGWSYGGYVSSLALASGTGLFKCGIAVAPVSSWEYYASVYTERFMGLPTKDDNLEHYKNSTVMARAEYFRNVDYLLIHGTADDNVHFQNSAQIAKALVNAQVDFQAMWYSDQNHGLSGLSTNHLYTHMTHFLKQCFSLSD

T3: directly coated FAP (FAP) (Homo sapiens, UniProt Q12884)
T3 sequence (Q12884 1-760): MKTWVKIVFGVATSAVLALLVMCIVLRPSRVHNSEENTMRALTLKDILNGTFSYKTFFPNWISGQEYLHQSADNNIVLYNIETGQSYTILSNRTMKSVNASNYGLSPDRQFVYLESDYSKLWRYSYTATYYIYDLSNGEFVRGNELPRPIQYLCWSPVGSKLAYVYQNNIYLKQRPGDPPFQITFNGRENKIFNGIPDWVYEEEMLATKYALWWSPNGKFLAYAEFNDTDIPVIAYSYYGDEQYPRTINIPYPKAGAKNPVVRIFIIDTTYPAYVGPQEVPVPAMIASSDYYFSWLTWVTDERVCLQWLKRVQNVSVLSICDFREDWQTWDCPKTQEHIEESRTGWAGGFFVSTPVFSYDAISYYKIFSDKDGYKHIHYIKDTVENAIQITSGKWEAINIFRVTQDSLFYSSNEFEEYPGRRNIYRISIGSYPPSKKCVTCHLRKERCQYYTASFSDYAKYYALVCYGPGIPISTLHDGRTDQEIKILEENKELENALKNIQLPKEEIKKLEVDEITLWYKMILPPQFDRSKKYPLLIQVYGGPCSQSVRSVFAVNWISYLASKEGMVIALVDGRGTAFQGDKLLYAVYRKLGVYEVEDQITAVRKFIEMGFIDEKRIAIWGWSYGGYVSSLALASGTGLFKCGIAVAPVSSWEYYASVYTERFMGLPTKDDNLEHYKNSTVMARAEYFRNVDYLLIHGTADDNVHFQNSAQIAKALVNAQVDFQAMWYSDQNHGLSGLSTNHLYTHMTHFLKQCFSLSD


How the values were obtained:
[1] = test system: directly coated FAP peptides mixture (cFAP); test: direct ELISA on coated mixture of FAP peptides; format: binding, human; settings: peptides 378-392, 622-636, 721-736
Procedure: (§1) ELISA assays were performed with varying antibody concentrations to validate the binding of the exemplary antibodies of the present invention to FAP and to be able to determine their half maximal effective concentration (EC50). For the exemplary recombinant human NI-206-18H2, NI-206-20A8, NI-206-6D3, ‘NI-206-14C5, NI-206-34C11, NI-206.82C2, NI-206.59B4, NI-206.22F7, NI-206.27E8, NI-206.12G4 and NI-206.17A6 antibodies, 96-well microplates (Costar, Corning, USA) were coated with FAP, with a mixture of the 3 peptides or with BSA (Sigma-Aldrich, Buchs, Switzerland) diluted to a concentration of 5 μg/ml in carbonate ELISA coating buffer (15 mM Na2CO3, 35 mM NaHCO3, pH 9.4) for the direct ELISA. For the capture ELISA, the microplates were coated with mouse anti-His monoclonal antibody (Clontech) diluted to a concentration of 3 μg/ml in PBS, the plates were then blocked, FAP or BSA were diluted to a concentration of 2 μg/ml in PBS and added to the plates to be captured. The binding efficiency of the antibodies was then tested.
(§2) The EC50 values were estimated by a non-linear regression using GraphPad Prism (San Diego, USA) software. […] The binding of NI-206.12G4 towards sFAP was not tested.

[2] = target: T1, transmembrane human FAP on FAP expressing HEK293 cells; test: flow cytometry of Cy5 labelled antibodies on FAP-HEK293 cells in pH adjusted PBS; format: cell-based; settings: pH 7.4 to 6.2; 0.1-100 nM Cy5 labelled antibody
Procedure: To evaluate the binding of NI-206.82C2, NI-206.59B4, NI-206.27E8, NI-206.12G4, NI-206.18H2 and NI-206.6D3 to transmembrane human FAP, an FAP expressing HEK293 cell line was received from the National Institutes of Health, Bethesda, Md. The generation of this FAP expressing HEK293 cells is described in: J. Exp. Med. 2013 Vol. 210 No. 6 1125-1135. HEK293 cells were transduced with retrovirus encoding full length human FAP cDNA. Cloning was performed using Fast Cloning Pack and FastDigest restriction enzymes (both from Fermentas). Transient retroviral supernatants were generated by transfecting 293GP cells with the FAP plasmid using Lipofectamine 2000 (Invitrogen). Retroviral supernatants were collected at 48 h after transfection and centrifuged onto Retronectin-coated (10 μg/ml; Takara), non-tissue culture-treated 6-well plates at 2,000 G for 2 h at 32° C. These retroviral supernatants where then used to transduce HEK293 cells overnight. Transduced FAP-HEK293 cells were selected with 1 mg/ml G418 (CellGro).
500′000 FAP-HEK293 cells were incubated for 1 hr at 4° C. either with Cy5 labelled NI-206.82C2, NI-206.59B4, NI-206.27E8, NI-206.12G4, NI-206.18H2 or NI-206.6D3 or with Cy5 labelled 43A11 at four different antibody concentrations (0.1, 1, 10, and 100 nM) in seven different pH-adjusted PBS buffers (pH 7.4, 6.8, 6.6, 6.5, 6.4, 6.3 and 6.2). PBS buffers were adjusted to using MES monohydrate (Sigma Aldrich). Following incubation, cells were washed 3 times with 200 uL in matched pH-adjusted PBS, spun at 400G for 4 min, and resuspended in 200 μL of pH adjusted buffer.
To analyze antibody binding, fluorescent activated flow cytometry was performed using a BD Fortesa device for forward scatter, side scatter, and the mean fluorescent intensity (MFI) of the Cy5 channel was recorded using a […] laser excitation and 600/20 filter. Viable cells were gated by forward and side scatter, and singlets/doublet exclusion, and the MFI for Cy5 was quantified using FlowJo software Version 10.1.

captured FAP (sFAP) = target: T2, captured FAP (sFAP); test: capture ELISA, FAP captured via his-tag with coated anti-His antibody; format: binding
Procedure: as §1, §2

BSA = target: T4, BSA (Bos taurus, UniProt P02769); test: ELISA control binding to BSA; design: species or system bovine
T4 construct: purchased Sigma-Aldrich
T4 sequence (P02769 25-607): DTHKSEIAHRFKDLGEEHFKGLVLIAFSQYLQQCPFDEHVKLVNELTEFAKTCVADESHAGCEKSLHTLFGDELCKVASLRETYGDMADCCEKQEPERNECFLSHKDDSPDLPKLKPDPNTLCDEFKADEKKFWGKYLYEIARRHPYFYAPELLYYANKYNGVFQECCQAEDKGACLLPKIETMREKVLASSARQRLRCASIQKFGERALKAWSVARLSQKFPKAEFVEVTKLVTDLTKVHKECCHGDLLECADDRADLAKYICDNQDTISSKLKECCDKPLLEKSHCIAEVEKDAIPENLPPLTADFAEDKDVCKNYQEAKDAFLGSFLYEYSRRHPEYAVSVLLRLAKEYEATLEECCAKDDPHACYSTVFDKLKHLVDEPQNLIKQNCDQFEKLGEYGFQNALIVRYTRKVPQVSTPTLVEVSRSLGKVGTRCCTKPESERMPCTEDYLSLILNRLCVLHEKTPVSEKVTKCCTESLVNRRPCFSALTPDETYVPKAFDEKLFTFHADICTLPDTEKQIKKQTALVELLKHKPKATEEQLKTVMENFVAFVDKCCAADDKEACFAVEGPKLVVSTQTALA
Procedure: as §1

[3] = target: T3, directly coated FAP (FAP); test: direct ELISA on directly coated FAP; format: binding
Procedure: as §1, §2

[4] = ELISA, varying antibody concentrations

Molecule | EC50 to the directly coated FAP peptides mixture (cFAP) [1] | paratope-specific avidity (ΔMFI) under acidic conditions vs. at pH 7.4 [2] | other results
NI-206.17A6: human-derived recombinant anti-FAP antibody; VH SEQ ID NO: 24, VK SEQ ID NO: 26 (antibody, listed as Homo sapiens, V domains shown) VH: QVQLQESGPGLVRSTETLSLTCLVSGDSINSHYWSWLRQSPGRGLEWIGYIYYTGPTNYNPSLKSRVSISLGTSKDQFSLKLSSVTAADTARYYCARNKVFWRGSDFYYYMDVWGKGTTVTVSS VL: EIVLTQSPGTLSLSLGERATLSCRASQSLANNYLAWYQQKPGQAPRLLMYDASTRATGIPDRFSGSGSGTDFTLTISRLEPEDFAVYYCQQFVTSHHMYIFGQGTKVEIK | did not show any binding | – | –
NI-206.59B4: human-derived recombinant anti-FAP antibody; VH SEQ ID NO: 8, VL SEQ ID NO: 10 (antibody, listed as Homo sapiens, V domains shown) VH: QVQLVQSGAEVKKPGASVKVSCKTSGYTFTDYYIHWVRQAPGQGLEWMGWINPNRGGTNYAQKFQGRVTMTRDTSIATAYMELSRLRSDDTAVYYCATASLKIAAVGTFDCWGQGTLVTVSS VL: SYELTQPPSVSVSPGQTARITCSGDALSKQYAFWFQQKPGQAPILVIYQDTKRPSGIPGRFSGSSSGTTVTLTISGAQADDEADYYCQSADSSGTYVFGTGTKVTVL | did not show any binding | increased | binding to the captured FAP (captured FAP (sFAP); [4]): specifically, strongly and similarly bind; binding to BSA (BSA): does not bind; binding to the directly coated FAP [3, 4]: specifically, strongly and similarly bind
NI-206.22F7: human-derived recombinant anti-FAP antibody; VH SEQ ID NO: 12, VL SEQ ID NO: 14 (antibody, listed as Homo sapiens, V domains shown) VH: EVQLVETGGGVVQPGRSLRLSCAASGFSFSTHGMYWVRQPPGKGLEWVAVISYDGSDKKYADSVKGRFTISRDNSKNTVYLEMSSVRAEDTALYYCFCRRDAFDLWGQGTMVTVSS VL: SYVLTQPPSVSVSPGQTARITCSGDALPKKYAYWYQQKSGQAPVLVIYEDTKRPSGIPERFSGSSSGTMATLTISGAQVEDEADYYCYSTDSSGNYWVFGGGTEVTVL | – | – | EC50 to the captured FAP (sFAP) (captured FAP (sFAP); capture ELISA, non-linear regression, GraphPad Prism): did not show any binding; EC50 to the directly coated FAP (FAP) ([3]; direct ELISA, non-linear regression, GraphPad Prism): did not show any binding
NI-206.27E8: human-derived recombinant anti-FAP antibody; VH SEQ ID NO: 16, VL SEQ ID NO: 18 (antibody, listed as Homo sapiens, V domains shown) VH: EVQLVESGGGLVEPGGSLRLSCAASGFTFSDAWMNWVRQAPGKGLEWVGRIKTKSDGGTTDYAAPVRGRFSISRDDSKNTLFLEMNSLKTEDTAIYYCFITVIVVSSESPLDHWGQGTLVTVSS VL: SYELTQPPSVSVSPGQTARITCSGDELPKQYAYWYQQKPGQAPVLVIYKDRQRPSGIPERFSGSSSGTTVTLTISGVQAEDEADYYCQSAYSINTYVIFGGGTKLTVL | did not show any binding | increased | –
NI-206.12G4: human-derived recombinant anti-FAP antibody; VH SEQ ID NO: 20, VL SEQ ID NO: 22 (antibody, listed as Homo sapiens, V domains shown) VH: EVQLVESGGGLVKPGGSLRLSCAASGFTFSDYYMSWIRQAPGKGLEWISYISSGSSYTNYADSVKGRFTISRDNAKKSVYLEVNGLTVEDTAVYYCARVRYGDREMATIGGFDFWGQGTLVTVSS VL: SYELTQPPSVSVSPGQTARITCSGDALPKQYAYWYQQSPGQAPVLVIYKDSERPSGIPERFSGSSSGTTVTLTISGVQAEDEADYYCQSADSGGTSRIFGGGTKLTVL | did not show any binding | decreases | –
